In assay [1] the target is T1, B. anthracis Surface array protein (Sap), native S-Layer on B. anthracis 34F2 cells (Bacillus anthracis, UniProt P49051 30-814).
T1 sequence: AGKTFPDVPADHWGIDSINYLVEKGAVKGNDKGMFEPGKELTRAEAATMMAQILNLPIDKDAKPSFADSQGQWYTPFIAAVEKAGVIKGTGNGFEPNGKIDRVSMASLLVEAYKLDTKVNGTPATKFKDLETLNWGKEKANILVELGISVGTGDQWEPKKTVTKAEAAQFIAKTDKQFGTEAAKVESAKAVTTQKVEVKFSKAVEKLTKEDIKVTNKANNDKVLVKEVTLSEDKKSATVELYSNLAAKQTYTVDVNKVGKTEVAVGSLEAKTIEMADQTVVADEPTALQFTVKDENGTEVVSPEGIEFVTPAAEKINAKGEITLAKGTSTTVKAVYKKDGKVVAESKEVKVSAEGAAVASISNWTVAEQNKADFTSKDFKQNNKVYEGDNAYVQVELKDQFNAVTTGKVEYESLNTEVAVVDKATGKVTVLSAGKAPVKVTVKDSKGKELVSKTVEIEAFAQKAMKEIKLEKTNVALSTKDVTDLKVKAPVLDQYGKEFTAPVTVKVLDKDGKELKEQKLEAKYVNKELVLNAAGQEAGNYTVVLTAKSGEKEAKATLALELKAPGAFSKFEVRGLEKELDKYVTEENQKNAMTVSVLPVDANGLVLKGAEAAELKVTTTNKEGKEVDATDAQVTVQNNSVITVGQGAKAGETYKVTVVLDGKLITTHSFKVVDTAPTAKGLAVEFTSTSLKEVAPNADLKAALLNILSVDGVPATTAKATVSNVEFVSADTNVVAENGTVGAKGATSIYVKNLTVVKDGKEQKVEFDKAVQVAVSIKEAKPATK
The assay can be described thus: fluorescence microscopy of B. anthracis 34F2 cells with DyLight 650-labelled Nb.

Assay [2] has as its target Sap Domain 2 (D2, residues 296-384), isolated recombinant domain (Bacillus anthracis, UniProt P49051 296-384). As to the kind of experiment: dot blot.
Assay [3] addresses Sap Domain 1 (D1, residues 216-295), isolated recombinant domain (Bacillus anthracis, UniProt P49051 216-295). The assay can be described thus: dot blot.

Numbering of substitutions follows the chain as printed.

B1: anti-Sap Nanobody703 (VHH)
VHH: QVQLVESGGGLVQPGGSLRLSCAASGFTFSSYAMSWVRQAPGKGLEWVSDINSGGGSTYYADSVKGRFTISRDNAKNTLYLQMNSLKPEDTAVYYCATGGKYGSTWYGQIEYDYWGQGTQVTVSS
Regarding B1, in assay [1], the binding result is reported as “binds”.

B2: anti-Sap Nanobody692 (VHH)
VHH: QVQLVESGGGLVQAGGSLRLSCAASGSIFRINDMGWYRQAPGKQRELVAVITSGGSANYADSVKGRFSISRDNAKKAVYLRMNSLKPEDTAVYYCNADFGTLGRYDYWGQGTQVTVSS
In the case of B2, the binding result in assay [2] is “no binding”.

B3: anti-Sap Nanobody707 (VHH)
VHH: QVQLVESGGGLVQAGGSLRLSCAASGSIFRINAMGWYRQASGKQRELVAAITSGGNTNYADSVKGRFTISRDNAKNTVYLQMNSLKPEDTAVYYCNADFGTGGRPYDYWGQGTQVTVSS
As for B3, the binding result in assay [2] is reported as “no binding”.

B4: anti-Sap Nanobody702 (VHH)
VHH: QVQLVESGGGLVQAGGSLRLSCAASGSIFRVNDMGWYRQAPGKQRELVAIIITGGSTNYADSVKGRFTISRDNAKNTVYLQMNSLRPEDTAVYYCNADFGTGPGRYDYWGQGTQVTVSS
Turning to B4, the binding result in assay [2] is on record as “no binding”.

B5: anti-Sap Nanobody683 (VHH)
VHH: B3 VHH with A33D, S41P, N56S, N76K, T77M, N96H, G100S, G103W, R104A
As to B5, the binding result in assay [2] is “no binding”.

B6: anti-Sap Nanobody684 (VHH)
VHH: B3 VHH with S21F, I31V, A40V, S41T, N56R, A74I, F99L, P105S
On to B6, for which, in assay [3], the binding result was “binds”.

B7: anti-Sap Nanobody688 (VHH)
VHH: QVQLVESGGGLVRAGGSLRLSCAASGSIFRINDMGWYRQAPGKQRELVAAITSGGSTNYADSVKGRFTISRDNAKNTVYLQMNSLKPEDTAVYYCNADFSTVRERRYDYWGQGTQVTVSS
On to B7, for which the binding result in assay [2] is reported as “no binding”.
